Reference: patent publication US20100168033A1, “UNACYLATED GHRELIN AS THERAPEUTIC AGENT IN THE TREATMENT OF METABOLIC DISORDERS” (ALIZE PHARMA SAS, priority 2007, published 2010)
No end group written: not given here.

B1: unacylated ghrelin UAG (1-28) (peptide)
peptide: GSSFLSPEHQRVQQRKESKKPPAKLQPR
B2: UAG (6-13) (peptide)
peptide: SPEHQRVQ
modifications: not fully specified

Assays:
[1] = biological target: UAG receptor on INS-1E pancreatic β cells (rat); test: competition with [125I-Tyr4]-UAG on INS-1E β-cell membranes, mean±SEM of three experiments
[2] = biological target: UAG receptor on HIT-T15 pancreatic β cells (hamster); test: competition with [125I-Tyr4]-UAG on HIT-T15 β-cell membranes, mean±SEM of three experiments

Row | Binder | IC50 [1] | IC50 [2]
1 | B1 | 2 nM | 2.6 nM
2 | B2 | 2.4 nM | 3.8 nM
